# Earlier results as cited in patent publication US7202065B2, “Stabilized liquid preparation of the protease which activates blood coagulation factor VII, or of its proenzyme” (ZLB Behring GmbH, priority 2001, dated 2007).
# Conditions: solution containing 20 mM Tris, 0.15 mM NaCI at a pH of 7.5
substance,measurement,value
"proenzyme: proenzyme, which is the non-activated form of the protease which activates blood coagulation factor VII",loss of activity after enrichment or isolation,rapid loss of activity
